According to PMC3004248:

Target: one-twelfth protomer of the giant extracellular haemoglobin from Glossoscolex paulistus (cyanomet HbGp) (Glossoscolex paulistus)
Assay: crystal structure; cyanomet-HbGp, whole particle; crystals from 1.2 M sodium citrate, 2.5 mM CaCl2, 50 mM Tris-HCl pH 7.5; space group I222, data to 3.2 Å; molecular replacement with the one-twelfth protomer of L. terrestris erythrocruorin (2gtl); preliminary, not refined

stoichiometry N (protomers per full particle): 12
Substance: one-twelfth protomer of the giant extracellular haemoglobin from Glossoscolex paulistus (cyanomet HbGp) (complex)
